Target: Flap endonuclease 1 (FEN1) (human (endogenous in RA3087 cells), UniProt P39748-1 1-380)
Assay: cell-based or functional assay

Flap endonuclease 1 (FEN1), sequence (P39748 whole entry): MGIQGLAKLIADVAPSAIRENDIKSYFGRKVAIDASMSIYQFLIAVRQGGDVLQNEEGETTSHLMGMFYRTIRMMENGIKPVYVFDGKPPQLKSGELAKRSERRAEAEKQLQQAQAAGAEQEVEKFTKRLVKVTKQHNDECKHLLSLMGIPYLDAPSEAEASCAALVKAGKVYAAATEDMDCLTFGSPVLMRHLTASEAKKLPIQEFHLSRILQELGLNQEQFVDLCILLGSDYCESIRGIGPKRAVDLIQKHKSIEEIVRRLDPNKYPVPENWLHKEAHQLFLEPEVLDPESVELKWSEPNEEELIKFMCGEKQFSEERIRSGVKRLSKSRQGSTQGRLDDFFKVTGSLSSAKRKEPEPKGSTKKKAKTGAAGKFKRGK

stimulation of FEN1 5' flap endonuclease activity on the 15-nt DNA flap (2 nM substrate, 0.2 nM purified FEN1) by purified His6-FANCA at 2.5, 5, 10 nM; fold over FEN1 alone: 4.5 fold
stimulation of FEN1 5' flap endonuclease activity on the 15-nt RNA flap (2 nM substrate, 0.1 nM purified FEN1) by purified His6-FANCA at 2.5, 5, 10 nM; fold over FEN1 alone: 8 fold
B1: FLAG-FANCA (human Fanconi anemia complementation group A protein) (natural protein, UniProt O15360-1 1-1455, looked up)
chain: MSDSWVPNSASGQDPGGRRRAWAELLAGRVKREKYNPERAQKLKESAVRLLRSHQDLNALLLEVEGPLCKKLSLSKVIDCDSSEAYANHSSSFIGSALQDQASRLGVPVGILSAGMVASSVGQICTAPAETSHPVLLTVEQRKKLSSLLEFAQYLLAHSMFSRLSFCQELWKIQSSLLLEAVWHLHVQGIVSLQELLESHPDMHAVGSWLFRNLCCLCEQMEASCQHADVARAMLSDFVQMFVLRGFQKNSDLRRTVEPEKMPQVTVDVLQRMLIFALDALAAGVQEESSTHKIVRCWFGVFSGHTLGSVISTDPLKRFFSHTLTQILTHSPVLKASDAVQMQREWSFARTHPLLTSLYRRLFVMLSAEELVGHLQEVLETQEVHWQRVLSFVSALVVCFPEAQQLLEDWVARLMAQAFESCQLDSMVTAFLVVRQAALEGPSAFLSYADWFKASFGSTRGYHGCSKKALVFLFTFLSELVPFESPRYLQVHILHPPLVPGKYRSLLTDYISLAKTRLADLKVSIENMGLYEDLSSAGDITEPHSQALQDVEKAIMVFEHTGNIPVTVMEASIFRRPYYVSHFLPALLTPRVLPKVPDSRVAFIESLKRADKIPPSLYSTYCQACSAAEEKPEDAALGVRAEPNSAEEPLGQLTAALGELRASMTDPSQRDVISAQVAVISERLRAVLGHNEDDSSVEISKIQLSINTPRLEPREHMAVDLLLTSFCQNLMAASSVAPPERQGPWAALFVRTMCGRVLPAVLTRLCQLLRHQGPSLSAPHVLGLAALAVHLGESRSALPEVDVGPPAPGAGLPVPALFDSLLTCRTRDSLFFCLKFCTAAISYSLCKFSSQSRDTLCSCLSPGLIKKFQFLMFRLFSEARQPLSEEDVASLSWRPLHLPSADWQRAALSLWTHRTFREVLKEEDVHLTYQDWLHLELEIQPEADALSDTERQDFHQWAIHEHFLPESSASGGCDGDLQAACTILVNALMDFHQSSRSYDHSENSDLVFGGRTGNEDIISRLQEMVADLELQQDLIVPLGHTPSQEHFLFEIFRRRLQALTSGWSVAASLQRQRELLMYKRILLRLPSSVLCGSSFQAEQPITARCEQFFHLVNSEMRNFCSHGGALTQDITAHFFRGLLNACLRSRDPSLMVDFILAKCQTKCPLILTSALVWWPSLEPVLLCRWRRHCQSPLPRELQKLQEGRQFASDFLSPEAASPAPNPDWLSAAALHFAIQQVREENIRKQLKKLDCEREELLVFLFFFSLMGLLSSHLTSNSTTDLPKAFHVCAAILECLEKRKISWLALFQLTESDLRLGRLLLRVAPDQHTRLLPFAFYSLLSYFHEDAAIREEAFLHVAVDMYLKLVQLFVAGDTSTVSPPAGRSLELKGQGNPVELITKARLFLLQLIPRCPKKSFSHVAELLADRGDCDPEVSAALQSRQQAAPDADLSQEPHLF

Source: PMC3857783, “Human Fanconi Anemia Complementation Group A Protein Stimulates the 5’ Flap Endonuclease Activity of FEN1” (PLoS ONE, 2013)
